# Source: paper PMC10192418 (2023)
# Ends that are not written are not given here. FAM = 5(6)-carboxyfluorescein (N-terminal)
# B1: linear peptide 3 (peptide)
# peptide: {FAM}-RSPESVAFPMFQSHWYSG
# B2: peptide 3 isomer 3 (peptide)
# chain: Fluorescein-RCPECVAFPMFQCHWYCG
# modifications: not fully specified (bridges); also: disulfide pairing not given here
# B3: B-RCAL (BÜHLMANN recombinant calprotectin; His6-linker-S100A9-linker-S100A8) (complex)
# chain: MTCKMSQLERNIETIINTFHQYSVKLGHPDTLNQGEFKELVRKDLQNFLKKENKNEKVIEHIMEDLDTNADKQLSFEEFIMLMARLTWASHEKMHEGDEGPGHHHKPGLGEGTPLEVLFQGPMLTELEKALNSIIDVYHKYSLIKGNFHAVYRDDLKKLLETECPQYIRKKGADVWFKELDINTDGAVNFQEFLILVIKMGVAAHKKSHEESHKE
# B4: peptide 3 isomer 2 (peptide)
# chain: Fluorescein-RCPECVAFPMFQCHWYCG
# modifications: not fully specified (bridges); also: disulfide pairing not given here
# Assays:
# [1] = target: B3; assay: SPR
# [2] = target: Peptide 7; assay: SPR
# [3] = target: Peptide 2; assay: SPR
# [4] = target: Peptide 3; assay: SPR
# [5] = target: Peptide 4; assay: SPR
# [6] = target: Peptide 1; assay: SPR
# [7] = target: Peptide 6; assay: SPR
# [8] = target: Peptide 9; assay: FP; calcium (tetramer)
# [9] = target: Peptide 11; assay: FP; calcium (tetramer)
# [10] = target: Peptide 13; assay: FP; calcium (tetramer)
# [11] = target: Peptide 10; assay: FP; calcium (tetramer)
# [12] = target: Peptide 12; assay: FP; calcium (tetramer)
# [13] = target: Peptide 8; assay: FP; calcium (tetramer)
# [14] = target: Peptide 7; assay: FP; Ca2+
# [15] = target: Peptide 2; assay: FP; Ca2+
# [16] = target: Peptide 5; assay: FP; Ca2+
# [17] = target: Peptide 4; assay: FP; Ca2+
# [18] = target: Peptide 1; assay: FP; Ca2+
# [19] = target: Peptide 6; assay: FP; Ca2+
binder,measurement,setting,value
B1,Kd,[1],46 nM
B2,Kd,[1],270 nM
B3,Kd,[2],840 nM
same,Kd,[3],400 nM
same,Kd,[4],340 nM
same,Kd,[5],1100 nM
same,Kd,[6],1220 nM
same,Kd,[7],310 nM
same,Kd,[8],29000 nM
same,Kd,[9],42000 nM
same,Kd,[10],154000 nM
same,Kd,[11],190000 nM
same,Kd,[12],37000 nM
same,Kd,[13],89 nM
same,Kd,[14],25 nM
same,Kd,[15],22 nM
same,Kd,[16],55 nM
same,Kd,[17],34 nM
same,Kd,[18],38 nM
same,Kd,[19],10 nM
B4,Kd,[1],500 nM
